Results published in PMC7049099 (Cell reports, 2020).

Molecular target: vesicular stomatitis virus (VSV) large (L) protein (vesicular stomatitis virus (VSV) …, UniProt P03523 1-2109)
Experiment: cryo-EM structure

vesicular stomatitis virus (VSV) large (L) protein, sequence (P03523 whole entry): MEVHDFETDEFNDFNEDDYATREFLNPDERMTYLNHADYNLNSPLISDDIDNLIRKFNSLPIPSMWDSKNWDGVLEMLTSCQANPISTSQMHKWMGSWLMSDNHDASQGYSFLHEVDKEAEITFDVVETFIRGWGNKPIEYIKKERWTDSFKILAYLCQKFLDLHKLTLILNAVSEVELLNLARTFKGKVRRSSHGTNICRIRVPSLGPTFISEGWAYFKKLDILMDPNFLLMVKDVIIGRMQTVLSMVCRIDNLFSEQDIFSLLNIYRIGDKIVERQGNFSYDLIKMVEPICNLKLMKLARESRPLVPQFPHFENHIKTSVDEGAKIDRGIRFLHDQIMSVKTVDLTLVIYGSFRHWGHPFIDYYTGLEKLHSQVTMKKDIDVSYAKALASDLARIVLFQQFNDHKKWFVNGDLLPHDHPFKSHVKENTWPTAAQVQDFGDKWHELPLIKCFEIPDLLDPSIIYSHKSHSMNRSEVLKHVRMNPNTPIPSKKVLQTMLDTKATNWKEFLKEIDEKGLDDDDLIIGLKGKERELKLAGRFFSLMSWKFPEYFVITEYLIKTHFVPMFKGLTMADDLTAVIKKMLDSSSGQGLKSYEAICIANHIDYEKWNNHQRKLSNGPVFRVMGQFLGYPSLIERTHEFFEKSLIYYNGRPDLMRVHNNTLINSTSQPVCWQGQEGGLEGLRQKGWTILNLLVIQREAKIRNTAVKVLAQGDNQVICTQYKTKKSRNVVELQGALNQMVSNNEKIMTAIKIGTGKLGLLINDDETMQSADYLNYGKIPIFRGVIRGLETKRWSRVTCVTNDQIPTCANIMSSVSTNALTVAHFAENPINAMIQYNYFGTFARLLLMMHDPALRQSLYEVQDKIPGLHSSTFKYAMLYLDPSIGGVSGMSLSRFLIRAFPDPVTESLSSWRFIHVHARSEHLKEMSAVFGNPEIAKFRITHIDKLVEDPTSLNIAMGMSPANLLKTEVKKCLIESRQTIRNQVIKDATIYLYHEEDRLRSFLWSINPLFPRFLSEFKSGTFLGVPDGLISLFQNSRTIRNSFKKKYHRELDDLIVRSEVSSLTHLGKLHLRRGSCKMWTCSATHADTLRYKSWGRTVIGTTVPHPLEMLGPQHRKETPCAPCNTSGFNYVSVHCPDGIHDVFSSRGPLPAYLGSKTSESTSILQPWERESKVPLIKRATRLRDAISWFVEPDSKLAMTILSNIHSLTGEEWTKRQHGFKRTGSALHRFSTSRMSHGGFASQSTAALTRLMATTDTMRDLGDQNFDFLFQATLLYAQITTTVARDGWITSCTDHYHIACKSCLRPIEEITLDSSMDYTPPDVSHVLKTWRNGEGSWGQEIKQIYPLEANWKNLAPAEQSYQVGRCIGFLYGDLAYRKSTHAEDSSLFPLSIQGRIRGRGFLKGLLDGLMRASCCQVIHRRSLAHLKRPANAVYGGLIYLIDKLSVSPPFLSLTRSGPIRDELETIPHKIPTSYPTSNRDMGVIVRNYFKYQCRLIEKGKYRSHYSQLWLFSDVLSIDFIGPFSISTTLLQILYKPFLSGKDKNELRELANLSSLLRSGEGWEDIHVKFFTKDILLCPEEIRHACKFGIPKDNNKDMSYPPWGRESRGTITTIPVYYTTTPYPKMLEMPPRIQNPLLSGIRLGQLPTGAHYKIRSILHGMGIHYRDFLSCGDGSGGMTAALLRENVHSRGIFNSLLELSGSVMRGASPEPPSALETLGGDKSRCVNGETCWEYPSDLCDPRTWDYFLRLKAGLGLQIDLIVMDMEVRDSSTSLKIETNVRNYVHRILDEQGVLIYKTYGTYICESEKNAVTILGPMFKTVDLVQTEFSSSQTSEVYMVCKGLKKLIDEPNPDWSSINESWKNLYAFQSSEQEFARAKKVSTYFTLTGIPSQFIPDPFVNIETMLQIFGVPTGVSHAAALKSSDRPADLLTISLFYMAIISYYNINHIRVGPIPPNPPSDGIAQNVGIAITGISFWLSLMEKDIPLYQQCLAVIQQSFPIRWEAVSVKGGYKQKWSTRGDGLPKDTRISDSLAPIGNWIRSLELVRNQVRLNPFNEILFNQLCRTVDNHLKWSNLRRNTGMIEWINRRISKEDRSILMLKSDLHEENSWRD

B1: VSV phosphoprotein (P) fragment, residues 35-106 (domain or fragment)
chain: SNYELFQEDGVEEHTKPSYFQAADDSDTESEPEIEDNQGLYAQDPEAEQVEGFIQGPLDDYADEEVDVVFTS
  binding result: binds
